Measured values published in patent US20240327534A1 (HARPOON THERAPEUTICS, published 2024).

T1: human BCMA on BCMA expressing cell lines (human, UniProt Q02223 1-184)
T1 sequence: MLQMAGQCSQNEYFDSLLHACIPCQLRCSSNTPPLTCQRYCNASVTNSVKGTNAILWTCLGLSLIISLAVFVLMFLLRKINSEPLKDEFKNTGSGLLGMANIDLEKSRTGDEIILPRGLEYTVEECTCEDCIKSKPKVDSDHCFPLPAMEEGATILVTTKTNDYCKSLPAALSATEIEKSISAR

T2: human BCMA protein (human, UniProt Q02223 1-54, limits assumed)
T2 sequence: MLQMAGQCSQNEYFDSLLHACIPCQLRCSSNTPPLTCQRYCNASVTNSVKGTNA


Legend:
[1] = target: T1, human BCMA on BCMA expressing cell lines; experiment: cell-based or functional assay
human BCMA protein = target: T2, human BCMA protein; experiment: affinity to human BCMA protein, method not stated

Binder | TDCC EC50 (EJM cells) [1] [pM] | Kd (human BCMA protein) [nM]
BCMA targeting trispecific protein 253BH10 (other, not shown: large carriers; small tags and cut ends, trispecific; described as a molecule with the parental CDRs; also called BH253) VHH: QVQLVESGGGLVQPGESLRLSCAASTNIFSISPMGWYRQAPGKQRELVAAIHGFSTLYADSVKGRFTISRDNAKNTIYLQMNSLKPEDTAVYYCNKVPWGDYHPRNVYWGQGTQVTVSS | 52.9 | 27.7
BCMA targeting trispecific protein 01A01 (other, not shown: large carriers; small tags and cut ends, trispecific) VHH: EVQLVESGGGLVQPGRSLTLSCAASTDIFSISPMGWYRQAPGKQRELVAAIHGGSTLYADSVKGRFTISRDNAKNSIYLQMNSLRPEDTALYYCNKVPWGDYHPRNVAWGQGTQVTVSS | 26.4 | 21.3
BCMA targeting trispecific protein 01A04 (other, not shown: large carriers; small tags and cut ends, trispecific) VHH: EVQLVESGGGLVQPGRSLTLSCAASTNIFMISPMGWYRQAPGKQRELVAAIHGDSTLYADSVKGRFTISRDNAKNSIYLQMNSLRPEDTALYYCNKVPWGRYHPRNVYWGQGTQVTVSS | 159 | 37.5
BCMA targeting trispecific protein 01A03 (other, not shown: large carriers; small tags and cut ends, trispecific) VHH: EVQLVESGGGLVQPGRSLTLSCAASTNIFSISPGGWYRQAPGKQRELVAAIHGSSTLYADSVKGRFTISRDNAKNSIYLQMNSLRPEDTALYYCNKVPWGDYHPRNVYWGQGTQVTVSS | 46.1 | 30.8
BCMA targeting trispecific protein 01A05 (other, trispecific; not shown: anti-albumin domain, anti-CD3 domain and the linkers of the trispecific (TriTAC) format) VHH: EVQLVESGGGLVQPGRSLTLSCAASTNIFSSSPMGWYRQAPGKQRELVAAIHGFSTLYADSVKGRFTISRDNAKNSIYLQMNSLRPEDTALYYCNKVPWGDYHPRNVYWGQGTQVTVSS | 15.1 | 17
BCMA targeting trispecific protein 01A02 (other, not shown: large carriers; small tags and cut ends, trispecific) VHH: EVQLVESGGGLVQPGRSLTLSCAASTNIFSSSPMGWYRQAPGKQRELVAAINGFSTLYADSVKGRFTISRDNAKNSIYLQMNSLRPEDTALYYCNKVPWGDYHPRNVHWGQGTQVTVSS | 21.8 | 21.5

Continued, values first:

TDCC EC50 (EJM cells) [1] [pM] | Kd (human BCMA protein) [nM] | Binder
11 | 15.8 | BCMA targeting trispecific protein 01A06 (other, trispecific; not shown: the C-terminal 6xHis tag follows those missing domains and is left out) VHH: EVQLVESGGGLVQPGRSLTLSCAASTNIFSIRPMGWYRQAPGKQRELVAAIHGFSTVYADSVKGRFTISRDNAKNSIYLQMNSLRPEDTALYYCNKVPWGDYHPRNVYWGQGTQVTVSS
19.5 | 19.9 | BCMA targeting trispecific protein 01B01 (other, not shown: large carriers; small tags and cut ends, trispecific) VHH: EVQLVESGGGLVQPGRSLTLSCAASTNIPSISPMGWYRQAPGKQRELVAAIHGESTLYADSVKGRFTISRDNAKNSIYLQMNSLRPEDTALYYCNKVPWGDYHPRNVAWGQGTQVTVSS
1 | – | BCMA targeting trispecific protein 01H06 (other, not shown: large carriers; small tags and cut ends) VHH: EVQLVESGGGLVQPGRSLTLSCAASTSDFSISPMGWYRQAPGKQRELVAAIHGFETLYADSVKGRFTISRDNAKNSIYLQMNSLRPEDTALYYCNKVPWGDYHPGNVYWGQGTQVTVSS
4.25 | 11.7 | BCMA targeting trispecific protein 01A08 (other, not shown: large carriers; small tags and cut ends, trispecific) VHH: EVQLVESGGGLVQPGRSLTLSCAASTNIFSSSPMGWYRQAPGKQRELVAAIHGESTLYADSVKGRFTISRDNAKNSIYLQMNSLRPEDTALYYCNKVPWGDYHPRKVYWGQGTQVTVSS
48.4 | 23.9 | BCMA targeting trispecific protein 01A09 (other, not shown: large carriers; small tags and cut ends, trispecific) VHH: EVQLVESGGGLVQPGRSLTLSCAASTNIFSITPMGWYRQAPGKQRELVAAIHGRSTLYADSVKGRFTISRDNAKNSIYLQMNSLRPEDTALYYCNKVPWGSYHPRNVYWGQGTQVTVSS
2.49 | 6.95 | BCMA targeting trispecific protein 01A07 (other, trispecific; not shown: the C-terminal His6 follows those missing domains and is left out) VHH: EVQLVESGGGLVQPGRSLTLSCAASTNISSISPMGWYRQAPGKQRELVAAIHGTSTLYADSVKGRFTISRDNAKNSIYLQMNSLRPEDTALYYCNKVPWGDYHPGNVYWGQGTQVTVSS
